{
  "source": "patent US20030008291A1",
  "key": {"[1]": {"molecular_target": "TRCF-β (β domain of Thermus thermophilus HB8 transcription-repair coupling factor, His-tagged) (Thermus thermophilus HB8)", "assay": "SPR (BIAcore), His-tagged β domain immobilised on Ni-NTA sensor chip, UvrA injected, without ATP (- ATP)"}, "[2]": {"molecular_target": "TRCF-β (β domain of Thermus thermophilus HB8 transcription-repair coupling factor, His-tagged) (Thermus thermophilus HB8)", "assay": "SPR (BIAcore), His-tagged β domain immobilised on Ni-NTA sensor chip, UvrA injected, with ATP (+ ATP)"}, "UvrA [3]": {"molecular_target": "UvrA", "sequence (Q56242 whole entry)": "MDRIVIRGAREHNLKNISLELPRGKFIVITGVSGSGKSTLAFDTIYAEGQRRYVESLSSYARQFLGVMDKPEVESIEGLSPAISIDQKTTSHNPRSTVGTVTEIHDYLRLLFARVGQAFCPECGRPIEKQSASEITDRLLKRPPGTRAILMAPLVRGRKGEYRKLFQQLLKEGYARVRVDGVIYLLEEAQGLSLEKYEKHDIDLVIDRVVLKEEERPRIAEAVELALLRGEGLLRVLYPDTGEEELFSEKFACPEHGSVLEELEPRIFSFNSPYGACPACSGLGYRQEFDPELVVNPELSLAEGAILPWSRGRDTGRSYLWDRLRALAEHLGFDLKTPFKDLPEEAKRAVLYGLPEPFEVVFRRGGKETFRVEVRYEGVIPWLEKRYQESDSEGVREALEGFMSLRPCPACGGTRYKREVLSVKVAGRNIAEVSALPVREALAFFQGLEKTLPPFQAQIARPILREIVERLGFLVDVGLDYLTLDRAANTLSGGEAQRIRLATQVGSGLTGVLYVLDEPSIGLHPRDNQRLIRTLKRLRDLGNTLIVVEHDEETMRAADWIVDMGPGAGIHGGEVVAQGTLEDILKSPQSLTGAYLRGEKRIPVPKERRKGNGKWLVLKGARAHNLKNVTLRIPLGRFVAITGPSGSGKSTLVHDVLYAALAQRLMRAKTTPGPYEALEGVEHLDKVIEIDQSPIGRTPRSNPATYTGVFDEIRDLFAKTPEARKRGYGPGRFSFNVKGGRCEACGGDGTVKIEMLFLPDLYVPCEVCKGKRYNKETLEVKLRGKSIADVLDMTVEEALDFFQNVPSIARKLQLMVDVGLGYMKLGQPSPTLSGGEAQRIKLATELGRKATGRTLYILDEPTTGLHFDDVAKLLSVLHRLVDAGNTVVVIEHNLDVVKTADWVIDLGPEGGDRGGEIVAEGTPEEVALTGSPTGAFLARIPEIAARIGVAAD", "assay": "SPR (BIAcore), His-tagged β domain immobilised on Ni-NTA sensor chip, UvrA in solution, with ATP"}, "UvrA [4]": {"molecular_target": "UvrA", "assay": "SPR (BIAcore), His-tagged β domain immobilised on Ni-NTA sensor chip, UvrA in solution, without ATP"}},
  "data": [
    {"substance": "UvrA (enzyme)", "values": [
      {"measurement": "koff", "setting": "[1]", "value": 0.13, "unit": "s⁻¹"},
      {"measurement": "kon", "setting": "[1]", "value": 100000, "unit": "M⁻¹ s⁻¹"},
      {"measurement": "koff", "setting": "[2]", "value": 0.07, "unit": "s⁻¹"},
      {"measurement": "kon", "setting": "[2]", "value": 150000, "unit": "M⁻¹ s⁻¹"}
    ]},
    {"substance": "TRCF-β (β domain of Thermus thermophilus HB8 transcription-repair coupling factor, His-tagged) (enzyme)", "values": [
      {"measurement": "Kd", "setting": "UvrA [3]", "value": 500, "unit": "nM"},
      {"measurement": "Kd", "setting": "UvrA [4]", "value": 1300, "unit": "nM"}
    ]}
  ]
}
